Measurements: PMC12547303
Changes are numbered by the printed parent chain.

Experiments:
CNNM2-S269P (mouse) = target: T1, CNNM2-S269P (mouse) (UniProt Q3TWN3)
T1 sequence: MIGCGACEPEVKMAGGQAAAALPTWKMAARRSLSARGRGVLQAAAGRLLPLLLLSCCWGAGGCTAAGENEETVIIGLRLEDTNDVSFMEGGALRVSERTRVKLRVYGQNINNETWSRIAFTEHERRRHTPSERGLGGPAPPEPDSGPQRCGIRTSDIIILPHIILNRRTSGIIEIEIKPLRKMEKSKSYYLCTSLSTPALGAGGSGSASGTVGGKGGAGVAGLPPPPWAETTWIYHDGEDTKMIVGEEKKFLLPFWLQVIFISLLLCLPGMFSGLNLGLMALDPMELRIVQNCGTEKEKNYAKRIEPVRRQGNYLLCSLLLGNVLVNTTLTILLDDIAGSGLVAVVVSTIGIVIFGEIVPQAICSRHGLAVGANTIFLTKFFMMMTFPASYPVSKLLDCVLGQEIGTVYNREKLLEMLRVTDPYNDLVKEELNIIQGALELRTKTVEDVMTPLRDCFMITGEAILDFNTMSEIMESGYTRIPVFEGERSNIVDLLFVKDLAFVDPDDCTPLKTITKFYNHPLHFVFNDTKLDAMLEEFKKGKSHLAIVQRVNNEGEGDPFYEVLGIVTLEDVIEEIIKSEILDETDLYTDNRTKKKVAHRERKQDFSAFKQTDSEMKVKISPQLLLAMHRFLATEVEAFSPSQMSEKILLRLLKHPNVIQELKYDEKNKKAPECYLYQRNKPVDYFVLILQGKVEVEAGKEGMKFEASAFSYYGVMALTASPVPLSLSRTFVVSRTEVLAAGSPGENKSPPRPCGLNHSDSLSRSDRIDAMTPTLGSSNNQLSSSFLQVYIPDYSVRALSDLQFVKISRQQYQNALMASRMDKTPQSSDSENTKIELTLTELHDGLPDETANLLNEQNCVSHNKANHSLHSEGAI

[1] = target: T2, FLAG-tagged CNNM2 lacking the CBS-pair domain, CNNM2-ΔCBS(469–578) (mouse) (UniProt Q3TWN3)
T2 sequence: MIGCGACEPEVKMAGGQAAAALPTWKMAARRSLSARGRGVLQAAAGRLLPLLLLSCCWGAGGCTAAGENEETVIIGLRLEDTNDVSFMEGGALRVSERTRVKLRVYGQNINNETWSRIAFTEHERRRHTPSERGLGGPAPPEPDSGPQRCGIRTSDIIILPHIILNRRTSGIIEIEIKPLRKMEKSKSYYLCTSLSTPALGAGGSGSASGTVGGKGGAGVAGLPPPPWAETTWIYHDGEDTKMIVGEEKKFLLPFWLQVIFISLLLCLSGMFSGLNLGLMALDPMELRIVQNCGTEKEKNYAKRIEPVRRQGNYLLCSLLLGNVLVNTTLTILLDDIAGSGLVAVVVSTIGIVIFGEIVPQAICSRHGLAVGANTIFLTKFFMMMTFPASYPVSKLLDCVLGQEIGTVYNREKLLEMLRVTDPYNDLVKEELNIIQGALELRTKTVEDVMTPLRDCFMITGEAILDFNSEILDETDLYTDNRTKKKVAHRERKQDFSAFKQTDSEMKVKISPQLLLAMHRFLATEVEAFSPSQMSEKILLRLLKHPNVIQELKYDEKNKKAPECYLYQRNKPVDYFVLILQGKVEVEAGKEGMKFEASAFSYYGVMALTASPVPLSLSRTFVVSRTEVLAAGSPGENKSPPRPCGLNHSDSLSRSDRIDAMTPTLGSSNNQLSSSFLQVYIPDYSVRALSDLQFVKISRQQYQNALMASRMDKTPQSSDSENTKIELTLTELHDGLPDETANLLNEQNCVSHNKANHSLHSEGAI

[2] = target: T3, CNNM2-H523K/S269P (mouse) (UniProt Q3TWN3)
T3 sequence: T1 sequence with H523K

outward TRPM7 current density at +100 mV in 293-M7-ΔCNNM3/4 cells with CNNM2-S269P, without vs with ARL15 (the value is with ARL15); marked reduction (CNNM2-S269P (mouse)): 123
outward TRPM7 current density at +100 mV in 293-M7-ΔCNNM3/4 cells with CNNM2-ΔCBS, without vs with ARL15 (the value is with ARL15); not different [1]: 330
outward TRPM7 current density at +100 mV in 293-M7-ΔCNNM3/4 cells with CNNM2-H523K/S269P, without vs with ARL15 (the value is with ARL15); not different [2]: 294
B1: Myc-DDK tagged ARL15 (natural protein)
chain: MSDLRITEAFLYMDYLCFRALCCKGPPPARPEYDLVCIGLTGSGKTSLLSKLCSESPDNVVSTTGFSIKAVPFQNAILNVKELGGADNIRKYWSRYYQGSQGVIFVLDSASSEDDLEAARNELHSALQHPQLCTLPFLILANHQDKPAARSVQEIKKYFELEPLARGKRWILQPCSLDDMDALKDSFSQLINLLEEKDHEAVRM
